Assay results: patent publication US20240002497A1

Columns and labels:
[1] = target: huNav1.7α (human Nav1.7 alpha subunit, expressed without β subunits) (human) (UniProt Q15858); test: FACS, HEK293 cells; SD MFI 2
[2] = target: huNav1.7α + β1 (human Nav1.7α co-expressed with Navβ1) (human) (UniProt Q15858); test: FACS, HEK293 cells; SD MFI 6
[3] = target: huNav1.7α + β1-β2-β3 (human Nav1.7α co-expressed with Navβ1, Navβ2 and Navβ3) (human) (UniProt Q15858); test: FACS, CHO Flp-In cells; SD MFI 12

Substance: Negative control (Table 33)
- Mean MFI [1]: 723 MFI
- Mean MFI [2]: 778 MFI
- Mean MFI [3]: 566 MFI
